The source of these data is the Immune Epitope Database (IEDB).

In one assay the target is HLA-B*15:03. The experiment in a line: IEDB peptide-MHC binding, purified MHC/competitive/radioactivity; filed as Kd, often an IC50 or EC50 that approximates it; ≥ and ≤ were set here for values at or beyond the usual limits of such assays.
Assay [1] deals with HLA-A*02:01. The description is as above.
Another assay has as its target HLA-A*02:03. The description is as above.
The next assay deals with HLA-B*48:01. In words: IEDB peptide-MHC binding, purified MHC/direct/fluorescence; filed as Kd, often an IC50 or EC50 that approximates it; ≥ and ≤ were set here for values at or beyond the usual limits of such assays.
The target of assay [2] is HLA-B*15:01. In words: IEDB peptide-MHC binding, purified MHC/competitive/radioactivity; filed as Kd, often an IC50 or EC50 that approximates it; ≥ and ≤ were set here for values at or beyond the usual limits of such assays.
The next assay addresses HLA-A*26:01. In words: IEDB peptide-MHC binding, purified MHC/competitive/fluorescence; filed as Kd, often an IC50 or EC50 that approximates it; ≥ and ≤ were set here for values at or beyond the usual limits of such assays. As to conditions: source organism: Escherichia coli str. K-12 substr. MG1655.
The target in a further assay is HLA-B*46:01. In words: IEDB peptide-MHC binding, purified MHC/direct/fluorescence; filed as Kd, often an IC50 or EC50 that approximates it; ≥ and ≤ were set here for values at or beyond the usual limits of such assays. The following applies: source organism: Yellow fever virus.
Assay [3] has as its target HLA-B*15:01. The description is as above. The following applies: source organism: Yellow fever virus.
The target of assay [4] is HLA-B*40:01. Described as above. As to conditions: source organism: Yellow fever virus.
The target in assay [5] is HLA-B*07:02. The assay is described as above. As to conditions: source organism: Yellow fever virus.
Another assay addresses HLA-B*57:01. The assay is described as above. As to conditions: source organism: Yellow fever virus.
In assay [6] the target is HLA-A*02:01. The description is as above. As to conditions: source organism: Yellow fever virus.
Another assay has as its target HLA-A*69:01. The description is as above. As to conditions: source organism: Yellow fever virus.
The target in the next assay is HLA-A*01:01. The description is as above. As to conditions: source organism: Yellow fever virus.
Assay [7] has as its target HLA-B*44:02. Described as above. As to conditions: source organism: Yellow fever virus.
Another assay deals with HLA-A*03:01. The assay is described as above. As to conditions: source organism: Yellow fever virus.
In another assay the target is HLA-B*58:01. The description is as above. As to conditions: source organism: Yellow fever virus.
A further assay has as its target HLA-B*51:01. In words: IEDB peptide-MHC binding, purified MHC/competitive/radioactivity; filed as Kd, often an IC50 or EC50 that approximates it; ≥ and ≤ were set here for values at or beyond the usual limits of such assays.
The next assay has as its target HLA-A*32:01. The assay is described as above.
A further assay deals with HLA-B*08:01. Described as above.
Assay [8] addresses HLA-B*07:02. Described as above.
The target in the next assay is HLA-B*53:01. Described as above.
The next assay has as its target HLA-B*27:05. The experiment in a line: IEDB peptide-MHC binding, purified MHC/direct/fluorescence; filed as Kd, often an IC50 or EC50 that approximates it; ≥ and ≤ were set here for values at or beyond the usual limits of such assays. As to conditions: source organism: Orthohantavirus hantanense.
The target in assay [9] is HLA-B*40:01. The experiment in a line: IEDB peptide-MHC binding, purified MHC/competitive/radioactivity; filed as Kd, often an IC50 or EC50 that approximates it; ≥ and ≤ were set here for values at or beyond the usual limits of such assays. As to conditions: source organism: Dengue virus 3 Martinique/1243/1999.
In a further assay the target is HLA-B*44:03. The assay is described as above.
Assay [10] addresses HLA-B*44:02. Described as above.
The target in the next assay is HLA-A*30:01. Described as above. The following applies: source organism: Vaccinia virus WR.
The mark [11] stands for this setting: source organism: Vaccinia virus WR.
Where [12] appears, read: source organism: Yellow fever virus.
Setting [13] is: source organism: Dengue virus 2 Jamaica/1409/1983.
[14] abbreviates: source organism: Lassa virus Josiah.
[15] abbreviates: source organism: Vaccinia virus Copenhagen.
Setting [16] is: source organism: Dengue virus 3 Martinique/1243/1999.
Setting [17] is: source organism: Dengue virus 3 Sri Lanka/1266/2000.
The mark [18] stands for this setting: source organism: Dengue virus 1 Brazil/97-11/1997.
The mark [19] stands for this setting: source organism: Dengue virus 1 Singapore/S275/1990.
Where [20] appears, read: source organism: Dengue virus 4 Philippines/H241/1956.

Some results are limits rather than exact numbers.

In general, Kd refers to the constant that tells how readily two partners part at equilibrium.

As to AAFEFINSL, in the assay with HLA-B*15:03 (setting [11]), the Kd turned out to be 4.55 nM.

Consider ALKRAQSEL, for which the Kd with HLA-A*02:01 [1] (source organism: Homo sapiens) was not below 41800 nM; with HLA-A*02:03 (source organism: Homo sapiens), 23.3 nM.

In the assay with HLA-B*48:01 (source organism: Salmonella enterica subsp. enterica serovar Paratyphi A str. ATCC 9150), AQAELDAAF yielded a Kd of 696 nM.

Consider AQVTCLKFL, for which, in the assay with HLA-B*48:01 (source organism: Cryptosporidium parvum Iowa II), the Kd was found to be 1670 nM.

In the case of CSAPPGQHM, the Kd with HLA-B*15:01 [2] (setting [11]) amounted to 52.7 nM; with HLA-B*15:03 (setting [11]), 24 nM.

DDVARAWSL came in with a Kd with HLA-B*48:01 (source organism: Mycobacterium tuberculosis str. Haarlem) not below 20000 nM.

DVAKIEAPL: the Kd with HLA-A*26:01 worked out at 324 nM.

As for ERWFVRNPF, the Kd in the assay with HLA-B*46:01, with HLA-B*15:01 [3], in the assay with HLA-B*40:01 [4], with HLA-B*07:02 [5], in the assay with HLA-B*57:01 and with HLA-B*48:01 (setting [12]) was not below 20000 nM each time. Further, the Kd in the assay with HLA-A*02:01 [6], with HLA-A*69:01, in the assay with HLA-A*01:01, with HLA-B*44:02 [7], with HLA-A*03:01 and in the assay with HLA-B*58:01 was not below 20000 nM each time.

In the case of FLTIPPTAGI, the Kd with HLA-B*51:01 (setting [13]) was 343 nM; with HLA-A*02:03 (setting [13]), 9.79 nM.

Regarding FQVVNPHLL, in the assay with HLA-B*15:03 (setting [11]), the Kd stood at 40.3 nM.

Consider FSGSFASIF, for which the dissociation constant Kd with HLA-B*15:03 (setting [11]) is 0.318 nM.

Regarding GLQSQQGHL, the Kd in the assay with HLA-A*02:01 [1] (source organism: Hepatitis B virus subtype ayw) was not below 5000 nM.

Regarding GLTYSQLMT, in the assay with HLA-A*02:01 [1] (setting [14]), the Kd came to 12500 nM.

For HMAYSFQTF, the Kd in the assay with HLA-B*15:01 [2] (setting [15]) was 0.246 nM; with HLA-A*32:01 (setting [15]) it was 16.3 nM; in the assay with HLA-B*15:03 (setting [15]), 0.279 nM; with HLA-B*08:01 (setting [15]), 733 nM.

Turning to IPTAMAFHL, the results for the Kd with HLA-B*07:02 [8] (setting [13]) and with HLA-B*53:01 (setting [13]) were 83.1 nM and 49.4 nM, respectively.

As to KRIAPMLYK, the Kd with HLA-B*48:01 (source organism: Orthohantavirus hantanense) is not below 20000 nM; with HLA-B*27:05 it was 40.7 nM.

Turning to LEFFMMVLL, the Kd with HLA-B*40:01 [9] came to 13.1 nM; in the assay with HLA-A*32:01 (setting [16]) it was 2040 nM; with HLA-B*44:03 (setting [16]), 2640 nM; with HLA-B*44:02 [10] (setting [16]), 10100 nM.

Take LEFFMMVLLI: the Kd was 12200 nM with HLA-B*40:01 [9] and 9210 nM with HLA-B*44:03 (setting [16]).

Consider LEFIHSQGF, for which the Kd in the assay with HLA-B*15:03 (setting [11]) came to 107 nM.

On to LHAVYSIVF, for which, in the assay with HLA-B*15:03 (setting [11]), the Kd is 8.81 nM.

In the case of LIGARRTSF, the Kd in the assay with HLA-B*15:01 [2] (setting [11]) was determined as 40.1 nM; with HLA-A*30:01, 563 nM; with HLA-A*32:01 (setting [11]), 5820 nM; in the assay with HLA-B*15:03 (setting [11]), 176 nM; with HLA-B*08:01 (setting [11]) it was 1.5 nM.

On to LIRNKRLSL, for which the Kd is 455 nM in the assay with HLA-B*15:01 [2] (setting [11]); 696 nM with HLA-A*30:01; not below 77800 nM in the assay with HLA-A*32:01 (setting [11]); 215 nM with HLA-B*15:03 (setting [11]); 0.783 nM in the assay with HLA-B*08:01 (setting [11]).

Turning to LPETMETLL, the Kd with HLA-B*53:01 (setting [16]) was 3580 nM.

For LPLFIFSLK, the Kd with HLA-B*51:01 (setting [16]) amounted to 13100 nM.

LPMTVAAMGV: the figures for the equilibrium dissociation constant (Kd) with HLA-B*07:02 [8] (setting [17]) and in the assay with HLA-B*51:01 (setting [17]) were 50.7 nM and 633 nM, respectively.

For the sequence LPVWLAYRV, the Kd in the assay with HLA-B*51:01 (setting [13]) came to 130 nM; in the assay with HLA-B*53:01 (setting [13]), 200 nM.

With MAFIAFLRFL, the Kd with HLA-B*51:01 (setting [18]) was found to be 16100 nM.

Regarding MEVTARWLW, the Kd with HLA-B*44:03 (setting [19]) worked out at 10.9 nM; with HLA-B*53:01 (setting [19]), 804 nM; with HLA-B*44:02 [10] (setting [19]) it was 2.1 nM.

On to MIEEVMRSRW, for which the Kd with HLA-B*53:01 (setting [18]) amounted to 166 nM.

MIKIALSVA: the Kd came out at 2780 nM with HLA-B*15:01 [2] (setting [11]); 1270 nM with HLA-A*30:01; 4690 nM with HLA-A*32:01 (setting [11]); 559 nM in the assay with HLA-B*15:03 (setting [11]); 535 nM with HLA-B*08:01 (setting [11]).

On to MKSLAMTAF, for which the Kd with HLA-B*15:03 (setting [11]) was 0.182 nM.

For the sequence MTSYQYLII, the equilibrium dissociation constant (Kd) with HLA-A*02:01 [1] (setting [14]) was found to be 926 nM.

For QPMEHKYSW, the equilibrium dissociation constant (Kd) came to 141 nM in the assay with HLA-B*07:02 [8] (setting [18]) and 57.8 nM in the assay with HLA-B*53:01 (setting [18]).

RAAGLQDCTML: in the assay with HLA-A*02:01 [1] (source organism: Hepatitis C virus (isolate 1)), the Kd was not below 50000 nM.

With RLNPEVSYF, the values for the Kd in the assay with HLA-B*15:01 [2] (setting [11]) and in the assay with HLA-B*15:03 (setting [11]) were 0.304 nM and 0.32 nM, respectively.

In the case of RLQPNQPPK, the dissociation constant Kd came to 934 nM in the assay with HLA-B*15:01 [2] (setting [11]); 145 nM with HLA-A*30:01; 1520 nM in the assay with HLA-A*32:01 (setting [11]); 298 nM in the assay with HLA-B*15:03 (setting [11]); 1010 nM with HLA-B*08:01 (setting [11]).

With RSHIRKPPS, the dissociation constant (Kd) with HLA-B*15:01 [2] (setting [11]) is 11000 nM; in the assay with HLA-A*30:01, 82.1 nM; with HLA-A*32:01 (setting [11]), not below 77800 nM; with HLA-B*15:03 (setting [11]), not below 23100 nM; with HLA-B*08:01 (setting [11]), 3330 nM.

As to SETQHGTIL, the equilibrium dissociation constant (Kd) with HLA-B*40:01 [9] amounted to 3.95 nM; with HLA-B*44:03 (setting [16]), 127 nM.

With SMWYIPNVF, the dissociation constant Kd was 5.1 nM in the assay with HLA-A*32:01 (setting [15]) and 0.722 nM with HLA-B*15:03 (setting [15]).

For SMYPSYIEF, the Kd with HLA-B*15:03 (setting [11]) is 0.11 nM.

For the sequence SPIEDIEREI, the Kd was 5450 nM with HLA-B*07:02 [8] (setting [20]), not below 22000 nM with HLA-B*51:01 (setting [20]) and 411 nM with HLA-B*53:01 (setting [20]).

In the assay with HLA-B*48:01 (setting [12]), SRLTYQWHK displayed an equilibrium dissociation constant (Kd) not below 20000 nM.

Consider SSKVFLKAF, for which the Kd in the assay with HLA-B*15:01 [2] (setting [11]) turned out to be 1.7 nM; with HLA-A*30:01 it was 2410 nM; with HLA-A*32:01 (setting [11]), 7020 nM; in the assay with HLA-B*15:03 (setting [11]), 0.369 nM; with HLA-B*08:01 (setting [11]) it was 728 nM.

Regarding VGVNHSNTF, the dissociation constant (Kd) with HLA-B*15:03 (setting [11]) was 80.6 nM.

Consider YKFSCGLSL, for which the Kd in the assay with HLA-B*15:03 (setting [11]) came to 0.132 nM.

In the assay with HLA-B*48:01 (setting [19]), YRLRGEARK gave a Kd not below 20000 nM.
